Source: US8710017B2, “Human and mouse targeting peptides identified by phage display” (priority 2000, dated 2014)
Ends that are not written are not given here.

Assays:
HUVEC cells = assay: Apoptosis assay (propidium iodide staining, subdiploid population); type: cell-based, human; conditions: 15 μM, 4 hours, FIG. 17
Protocol: FIG. 17. Penetratin peptide chimera binding to the β5 cytoplasmic domain induces programmed cell death. 10^6 HUVEC cells were harvested in complete media and 15 μM penetratin peptide chimeras were added to the cells.
Approximately 1×10^6 cells were harvested in complete media and 15 μM of peptide added for 4, 8, or 12 h. The cells were then washed in PBS and resuspended in 0.5 ml propidium iodide solution (50 μg/ml PI, 0.1% Triton X-100, 0.1% sodium citrate). After a 24-h incubation at 4° C., cells were counted with a XL Coulter (Coulter Corporation) with a 488-nm laser; 12,000 cells were counted for each histogram, and cell cycle distributions were analyzed with Multicycle program.
Approximately 1×10^6 cells were harvested in complete medium, and 15 μM of peptide was added for 4, 8, or 12 hours. The cells were then washed in PBS and resuspended in 0.5 ml propidium iodide solution (50 μg/ml PI, 0.1% Triton X-100, 0.1% sodium citrate). After a 24-h incubation at 4° C., the cells were counted with an XL Coulter (Coulter Corporation) with a 488 nm laser; 12,000 cells were counted for each histogram, and cell cycle distributions were analyzed with the Multicycle program.

HUVEC = assay: Apoptosis by chromatin fragmentation (agarose gel) in HUVEC; type: cell-based, human; conditions: 15 μM, 2-4 hours, FIG. 21
Protocol: 10^6 HUVEC were treated with 15 μM of VISY antennapedia (penetratin) chimera or 15 μM of antennapedia peptide (pentratin) alone for 2-4 hours and chromatin fragmentation was analyzed by electrophoresis in an agarose gel.

GST-β5 integrin = target: T1, GST-β5 integrin (Homo sapiens, UniProt P18084); assay: Annexin V binding to GST-β5 cytoplasmic domain (ELISA), competition with VISY peptide
T1 construct: Plates were coated with GST fusion proteins of the cytoplasmic domains of various integrins and Annexin V was added to the plates
T1 sequence (P18084 743-799 limits assumed): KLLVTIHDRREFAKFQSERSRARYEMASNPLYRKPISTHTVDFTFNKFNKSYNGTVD
Protocol: (§1) Competitive binding assays were performed to examine the binding of Annexin V to β5 integrin and the effect of the VISY peptide. Plates were coated with GST fusion proteins of the cytoplasmic domains of various integrins and Annexin V was added to the plates. Binding of Annexin V was determined using anti-Annexin V antibodies. […] Calcium was used because Annexin V activity has been reported to be modulated by calcium. Binding of Annexin V to GST-β5 was blocked by addition of the VISY peptide (FIG. 20A).
A reciprocal study was performed, using Annexin V to coat plates and adding GST fusion proteins of integrin cytoplasmic domains. Binding was assessed using anti-GST fusion protein antibodies. […] In some studies, calcium ion appeared to interfere with the binding interaction between GST-β5 and Annexin V, with decreased binding observed in the presence of calcium (not shown).

GST-β1 integrin = GST-β1 integrin (Homo sapiens, UniProt P05556); assay: Annexin V binding to GST-β1 cytoplasmic domain (ELISA); conditions: FIG. 20A
GST-β1 integrin, sequence (P05556 752-798 limits assumed): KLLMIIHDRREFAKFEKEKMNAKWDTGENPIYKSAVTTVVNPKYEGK
Protocol: as §1

GST-β3 integrin = target: T2, GST-β3 integrin (Homo sapiens, UniProt P05106); assay: Annexin V binding to GST-β3 cytoplasmic domain (ELISA); conditions: FIG. 20A
T2 construct: recombinant fusion proteins containing β3 or β5 cytoplasmic domains
T2 sequence (P05106 742-788 limits assumed): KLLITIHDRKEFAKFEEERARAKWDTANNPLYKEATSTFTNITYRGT
Protocol: as §1

[1] = target: T3, β5 integrin cytoplasmic domain (Homo sapiens, UniProt P18084); assay: Binding of Fyn-phosphorylated phage to β5 cytoplasmic domain
T3 construct: the screenings involving the β5 cytoplasmic domain fusion protein
T3 sequence (P18084 743-799 limits assumed): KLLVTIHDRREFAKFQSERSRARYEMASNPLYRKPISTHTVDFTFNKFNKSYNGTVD
Protocol: Phosphorylation of peptide libraries with src family protein kinases (Fyn, c-Src, Lyn, and Syc) and serine/threonine kinases such as a MAP kinase were performed as described previously (Schmitz et al., 1996; Dente et al., 1997; Gram et al., 1997). Briefly, phage particles were collected from culture supernatants by double precipitation with 20% polyethylene glycol 8000 in 2.5 M NaCl. Particles were dissolved at 10^12 particles/ml. Purified phage (10 μl) were incubated for 3 hours at room temperature with different concentrations (35 to 3,500 units) of protein kinases in a reaction buffer volume of 50 μl. The reaction mixtures were transferred to tubes containing 10 μg of agarose-conjugated anti-P-Tyr, anti-P-Ser, or anti-P-Thr monoclonal antibodies to select phage displaying phosphorylated peptides. […] Phosphorylated peptides binding to β3 and β5 cytoplasmic domains were analyzed as described in the previous section.
Randomly selected clones from rounds III and IV were sequenced from a X4YX4 phosphorylated library with Fyn. […] The ratio of binding to β3 or β5 was calculated by dividing the number of β3 or β5 colonies by GST or BSA colonies found after panning. The ratio of binding to β3 or β5 with phosphorylated phage by Fyn versus unphosphorylated phage was calculated by dividing the number of colonies found after the panning. […]

[2] = target: T4, β3 integrin cytoplasmic domain (Homo sapiens, UniProt P05106); assay: Phage binding to immobilized GST-β3cyto
T4 construct: recombinant fusion proteins containing β3 or β5 cytoplasmic domains
T4 sequence (P05106 742-788 limits assumed): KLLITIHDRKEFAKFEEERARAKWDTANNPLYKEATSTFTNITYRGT
Protocol: FIG. 9. Binding of β3 cytoplasmic domain-selected phage to immobilized proteins. GST fusion proteins or GST alone were coated on microtiter wells at 10 μg/ml and used to bind phage expressing endostatin targeting peptides. […] The data represent the mean colony counts from triplicate wells, with standard error of less than 10% of the mean.
β3 and β5 cytoplasmic domain-binding peptides were isolated by screening multiple phage libraries with recombinant GST fusion proteins that contained either GST-β3cyto or GST-β5cyto coated onto microtiter wells. Immobilized GST was used as a negative control for enrichment during the panning of each cytoplasmic domain. Phage were sequenced from randomly selected clones after three rounds of panning as disclosed elsewhere (Koivunen et al., 1995; Pasqualini et al., 1995). Distinct sequences were isolated that interacted specifically with the β3 or with the β5 cytoplasmic domains (Table 9). Randomly selected clones from panning rounds II and III were sequenced. […] The ratios were calculated by dividing the number of colonies recovered from β3-GST-coated wells and those recovered from GST or BSA.
The specificity of the interaction with β3 or β5 cytoplasmic domains was determined by calculating the ratios between the number of phage bound to the cytoplasmic domain containing-fusion proteins (β3 or β5) versus GST alone (negative control). […]

mouse spleen = assay: In vivo spleen targeting of Fab phage clones by BRASIL; conditions: 5 minutes circulation, FIG. 5
mouse spleen cells = assay: In vitro binding of Fab phage clones to spleen cells by BRASIL; type: cell-based
Protocol: A singe cell suspension was prepared from two mouse spleens. The suspension was divided into five tubes and incubated on ice with 3×10^9 TU of Fab clones #2, #6, #10, #12 and 2×10^9 TU tet-phage. Phage bound to mouse spleen cells were recovered by BRASIL. 200 μl of log phase ER2537 E. coli was infected with the pellet and serial dilutions were plated on LB/carbenicillin and LB/tetracyclin plates for assessment of phage binding. Fd-tet was used as an internal control to normalize all the phage homing experiments.

VISY-penetratin chimera: chimeric peptide containing VISY peptide (VVISYSMPD) linked to penetratin (antennapedia), plus a biotin moiety (VVISYSMPDRQIKIWFQNRRMKWKK; also: plus a biotin moiety, site not given here)
induction of apoptosis (PI staining) (HUVEC cells): induction of apoptosis | induction of apoptosis (chromatin fragmentation) (HUVEC): induction of apoptosis

Annexin V: 36 kDa endogenous protein analog of the VISY peptide, ligand of β5 integrin cytoplasmic domain
binding of Annexin V to GST-β5 integrin (GST-β5 integrin; FIG. 20A): bound strongly | binding of Annexin V to GST-β5 integrin (GST-β5 integrin; Tris-buffered saline (TBS)): Low binding | binding of Annexin V to GST-β5 integrin (GST-β5 integrin; cytoplasmic buffer with or without added calcium (2 mM)): high binding | binding of Annexin V to GST-β1 integrin (GST-β1 integrin): did not bind | binding of Annexin V to GST-β3 integrin (GST-β3 integrin): did not bind

TMLRYFMFP
Phos/Unphos ([1]; phage phosphorylated by Fyn versus unphosphorylated phage): 4.2

AGWLYMSWK
β3/BSA Ratio ([2]; colonies from β3-GST-coated wells divided by those from BSA): 2.4 | β3/GST Ratio ([2]; colonies from β3-GST-coated wells divided by those from GST): 1.8

TLRKYFHSS
β3 or β5/GST ([1]; X4YX4 library phosphorylated with Fyn): 5.6

B1: Fab clone #6: chicken Fab phage clone from α-spleen library, localized in mouse spleen (protein)
scFv: CQPAMAAVTLDESGGGLQTPGGTLSLVCKASGISIGYGMNWVRQAPGKGLEYVASISGDGNFAHYGAPVKGRATISRDDGQNTVTLQLNNLR
modifications: Fab format
binding to spleen compared to Fd-tet phage (mouse spleen): many-fold increased binding to spleen | binding to mouse spleen cells compared to Fd-tet insertless control phage (mouse spleen cells; FIG. 3): lowest degree of differential binding | binding to mouse spleen cells, direct comparison with NPC-3TT (mouse spleen cells; FIG. 4): only slightly higher than the binding of phage NPC-3TT
